# Laboratory results reported in patent US8680233B2, “Heteropeptides useful for reducing nonspecific adsorption” (Valorisation-Recherche, Limited Partnership, priority 2009, dated 2014).
# Numbered stars: 1 amine (or outer) side, 2 acyl side, 3 side chain; on linkers, the order of the positions; unused ones are H or OH. Square brackets hold non-standard residues; d marks the D form. Ends that are not written are not given here. Peptide text beside a SMILES is read from it. azaTyr = O=C(N(Cc1ccc(O)cc1)N[*:1])[*:2]; azaPhe = O=C(N(Cc1ccccc1)N[*:1])[*:2]; azaLeu = CC(C)CN(N[*:1])C(=O)[*:2]; azaGly = NNC(=O)O; Mpa = O=C(O)CCS
# Assays:
# [1] = Advancing contact angle in PBS on peptide SAMs; assay type: physicochemical; settings: average of four replicates
# [2] = Surface concentration of the peptide monolayer on Au by SPR; assay type: physicochemical; settings: peptide SAM on Au SPR sensor; average of four replicates
# Method: The surface coverage for each monolayer was measured according to the change in response of the SPR sensor in PBS for the bare Au surface relative to the peptide-coated Au surface. To measure the formation of the monolayers, each SPR sensor was mounted on a custom-made SPR instrument in the Kretschmann configuration based on a dove prism with wavelength interrogation as previously described (Bolduc et al., 2009, supra). An Ocean Optics™ USB4000 fibre optic spectrometer ranging from 550 to 850 nm was used to acquire the spectral information processed with Matlab to obtain the SPR sensorgram. A 25 μL Teflon fluidic cell positioned on top of the SPR sensors was used to inject the solutions required to functionalize with the recognition element and detect the analytes of interest. The SPR response was acquired at a frequency of 1 Hz. The s-polarized reference was acquired in PBS buffer before monitoring a 5 minute baseline in p-polarization. PBS was replaced with crude bovine serum (76 mg/mL protein) for 20 minutes and rinsed with PBS for 5 minutes to quantify the amount of non-specifically adsorbed proteins.
# The formation of monolayers on Au was measured to ensure that the peptide monolayers are indeed binding to the SPR sensor. The surface concentration of the monolayer provides a measurement of the number of molecules per square cm (i.e. the density of the monolayer at the surface). The surface concentration (Γ) of peptide-like self-assembled monolayers (SAMs) was characterized with the measurement of the SPR response before the formation of the SAMs and after their formation on the Au surface of the SPR sensor. The difference of SPR wavelength (λSPR) between these two measurements increases with the increasing surface concentration of the SAMs following the equation proposed by Jung et al. (Jung, L. S. et al. Langmuir 1998, 14: 5636): Γ=ρ(−0.5/d)ln(1−(ΔλSPRm^−1(ηSAM−ηPBS)^−1)) (eq. 1)
# [3] = Secondary structure of peptide in solution by CD; assay type: physicochemical
# Method: (§1) Peptides adopt secondary conformation, which plays a significant role in their biological activity. For peptides in solution, the secondary conformation is measured with CD, while peptides immobilized on a surface can be analyzed with mid-IR spectroscopy of the amide bands (Duevel, R. V., Corn, R. M., 1992. Analytical Chemistry 64(4), 337-342; Sakurai, T. et al., 2006. Journal of Peptide Science 12(6), 396-402). As listed in Table II, the secondary structure of most peptides adopted an α-helical conformation, with the exception of 3-MPA-DSDSD-OH, which adopted an extended conformation. As noted above, most peptides in the form of 3-MPA-peptide-OH adopt an α-helical conformation. Generally, mid-IR and CD agreed in the determination of the structures on surfaces and in solution, with the exception of one peptide. […] No relationship between structure and nonspecific adsorption could be established.
# [4] = Secondary structure of peptide SAM by FT-IR (mid-IR amide band); assay type: physicochemical; settings: peptide SAM on gold-coated SPR sensor
# Method: Microscope slides (BK7, 22×22 mm) were coated with a 3 nm titanium (Ti) adhesion layer and a 50 nm gold (Au) layer (purity 99.99%, ESPI metals) using a Cressington™ 308R sputter coater. These Au-coated SPR slides were immersed for at least 16 h in a 5 mM peptide solution in absolute ethanol to form a well-ordered monolayer (Masson, J. F. et al. Talanta 2004, 64: 716). Four replicates were prepared for each 3-MPA-peptide. The SAM formed on the SPR sensors was extensively rinsed with DMF and ethanol and dried. The mid-IR spectrum of the peptide monolayers immobilized on the SPR sensors was measured in attenuated total reflectance (ATR). Mid-IR spectra were recorded using a BRUKER TENSOR® 27 equipped with a Ge-ATR module.
# The 3D structure of the peptides as SAMs is observed with the amide band visible in FT-IR. Peptides adopting an α-helix configuration are showing a strong amide band at 1645 cm^−1, while peptides auto-assembling in the β-sheet configuration leads to a shifted amide at 1675 cm^−1. Every peptide structure investigated in Table 1 adopted an α-helix configuration except for 3-MPA-HHHDD-OH, as shown in FIG. 3.
# as §1
# CD36 receptor = CD36 receptor (Homo sapiens, UniProt P16671); assay: SRC-kinase cellular assay following CD36 receptor activation; assay type: cell-based; settings: activation of src-kinases after CD36 receptor activation
# From the text: (§2) The SPR setup was used for investigating the structure-activity relationships of various CD36 peptidic ligands. […] The measured KD's were compared to the EC50 values obtained in the activated src-kinase assay following CD36 receptor activation by the tested peptides. […] For the src-kinase cellular assay, the response sensitivity (EC50) for the tested peptides (in decreasing order) was as follows: EP80317>CP-2A(v)>CP-3(iv)>DBG-178(27)>CP-2B(i). With SPR, the binding affinity to CD36, in decreasing order, was: DBG-178(27)>CP-2A(v)>EP80317>CP-3(iv)>CP-2B(i). […] For CD36-peptidic ligands, a correlation appears between the affinity binding of the small peptides for CD36 as determined by SPR and their efficiency to produce a cellular response in the src kinase assay. Thus, SPR appears as a selective and sensitive method to screen for CD36 ligands.
# [5] = target: recombinant soluble His-tagged CD36 (Homo sapiens, UniProt P16671); assay: SPR screening of peptide ligands on a CD36 functionalized sensor; assay type: binding; settings: for Kd: CD36 functionalized sensor, linear Langmuir plot
# Method: The SPR sensors for screening small peptidic ligand binding to a recombinant soluble His-tagged CD36 functionalized surfaces were prepared as described above. Five ligands were investigated: EP80317, CP-2B(i), CP-3(iv), CP-2A(v) and DBG-178(27) with concentrations ranging from 30 μM to 100 nM except for EP80317. The latter was used for optimizing the system with solutions ranging from 1 mM to 100 nM. EP80317 (HAIC-2MeDTrp-DLys-Trp-D-Phe-Lys-NH2) is a positive control of known activity, CP-2B(i) (His-DTrp-AzaLeu-Trp-DPhe-Ala-NH2) is a negative control, and CP-3(iv) (Ala-DTrp-Ala-AzaPhe-DPhe-Lys-NH2), CP-2A(v) (His-DTrp-AzaGly-Trp-DPhe-Lys-NH2) and DBG-178(27) (His-DTrp-Ala-azaTyr-DPhe-Lys-NH2) are novel CD36 ligands (see PCT publication No. WO 08/154,738). Another negative control was accomplished by exposing the His-tagged hDHFR functionalized surface to the same concentration of CD36 peptidic ligand. Two different approaches were used to remove the His-tagged CD36-Cu complex from the SPR sensors: concentrated histidine solution or saturated EDTA solution.
# This is the case of the CD36-ligand system investigated herein, where the ligands are small peptides of about 800 to 1000 g/mol. Indeed, according to the aforementioned principle, the binding of the small peptides to the CD36 receptor should be close to the limit of detection, thus providing unreliable affinity measurements. […] This could be a consequence of a large conformational change of the CD36 receptor upon binding of specific ligands, thus providing the amplification sufficient for SPR signal detection.
# as §2
# Chain of recombinant soluble His-tagged CD36 (P16671 30-439 limits assumed): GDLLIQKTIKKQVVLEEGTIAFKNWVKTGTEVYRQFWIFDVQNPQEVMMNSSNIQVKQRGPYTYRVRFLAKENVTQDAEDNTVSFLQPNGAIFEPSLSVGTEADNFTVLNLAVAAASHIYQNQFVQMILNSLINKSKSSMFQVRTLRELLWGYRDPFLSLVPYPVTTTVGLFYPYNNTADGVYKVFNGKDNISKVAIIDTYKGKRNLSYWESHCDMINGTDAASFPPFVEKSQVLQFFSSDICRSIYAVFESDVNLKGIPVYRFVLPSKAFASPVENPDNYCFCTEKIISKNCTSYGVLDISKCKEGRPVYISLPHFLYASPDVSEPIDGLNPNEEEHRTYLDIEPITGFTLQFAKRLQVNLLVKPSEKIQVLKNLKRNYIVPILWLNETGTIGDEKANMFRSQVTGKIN
# Chain of CD36 receptor (P16671 whole entry): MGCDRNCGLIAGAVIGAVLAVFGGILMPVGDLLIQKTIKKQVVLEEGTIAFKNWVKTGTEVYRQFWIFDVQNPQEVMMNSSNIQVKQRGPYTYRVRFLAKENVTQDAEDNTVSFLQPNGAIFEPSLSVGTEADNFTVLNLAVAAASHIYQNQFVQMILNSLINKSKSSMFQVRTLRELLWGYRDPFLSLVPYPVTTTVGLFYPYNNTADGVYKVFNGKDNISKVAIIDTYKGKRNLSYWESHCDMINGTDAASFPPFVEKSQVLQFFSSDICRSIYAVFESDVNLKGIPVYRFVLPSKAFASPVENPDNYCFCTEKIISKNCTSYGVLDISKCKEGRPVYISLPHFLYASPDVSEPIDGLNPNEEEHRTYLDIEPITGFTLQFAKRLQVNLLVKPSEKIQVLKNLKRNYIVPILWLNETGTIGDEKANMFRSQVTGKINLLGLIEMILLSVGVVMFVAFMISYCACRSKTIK
Molecule,Contact angle in PBS θC_PBS [1],Surface density ΔΓSAM [2],Secondary Structure CD (solution) [3],Secondary Structure FT-IR (SAM) [4],other results
3-MPA-DDDHH ([Mpa]DDDHH),46.4 °,0.279 10^15 molecule/cm^2,–,–,–
3-MPA-DDDSS ([Mpa]DDDSS),51.2 °,0.311 10^15 molecule/cm^2,–,–,–
3-MPA-DHDHD-OH ([Mpa]DHDHD-OH; SMILES O=C(O)C[C@H](NC(=O)[C@H](Cc1c[nH]cn1)NC(=O)[C@H](CC(=O)O)NC(=O)[C@H](Cc1c[nH]cn1)NC(=O)[C@H](CC(=O)O)NC(=O)CCS)C(=O)O),–,–,α,α,–
3-MPA-DSDSD-OH ([Mpa]DSDSD-OH; SMILES O=C(O)C[C@H](NC(=O)[C@H](CO)NC(=O)[C@H](CC(=O)O)NC(=O)[C@H](CO)NC(=O)[C@H](CC(=O)O)NC(=O)CCS)C(=O)O),–,–,extended,extended,–
3-MPA-GGGGD-OH ([Mpa]GGGGD-OH; SMILES O=C(O)C[C@H](NC(=O)CNC(=O)CNC(=O)CNC(=O)CNC(=O)CCS)C(=O)O),–,–,α,α,–
3-MPA-GGHHDD-OH ([Mpa]GGHHDD-OH; SMILES O=C(O)C[C@H](NC(=O)[C@H](CC(=O)O)NC(=O)[C@H](Cc1c[nH]cn1)NC(=O)[C@H](Cc1c[nH]cn1)NC(=O)CNC(=O)CNC(=O)CCS)C(=O)O),–,–,α,α,–
3-MPA-HHHSS ([Mpa]HHHSS),39.9 °,0.125 10^15 molecule/cm^2,–,–,–
3-MPA-LHDLHD-OH ([Mpa]LHDLHD-OH; SMILES CC(C)C[C@H](NC(=O)CCS)C(=O)N[C@@H](Cc1c[nH]cn1)C(=O)N[C@@H](CC(=O)O)C(=O)N[C@@H](CC(C)C)C(=O)N[C@@H](Cc1c[nH]cn1)C(=O)N[C@@H](CC(=O)O)C(=O)O),–,–,α,α,–
3-MPA-LLHHDD-OH ([Mpa]LLHHDD-OH; SMILES CC(C)C[C@H](NC(=O)CCS)C(=O)N[C@@H](CC(C)C)C(=O)N[C@@H](Cc1c[nH]cn1)C(=O)N[C@@H](Cc1c[nH]cn1)C(=O)N[C@@H](CC(=O)O)C(=O)N[C@@H](CC(=O)O)C(=O)O),–,–,α,α,–
3-MPA-LLLDD ([Mpa]LLLDD),52.3 °,0.352 10^15 molecule/cm^2,–,–,–
3-MPA-LLLHH ([Mpa]LLLHH),41.4 °,0.296 10^15 molecule/cm^2,–,–,–
3-MPA-LLLSS ([Mpa]LLLSS),32.6 °,0.255 10^15 molecule/cm^2,–,–,–
3-MPA-SHDSHD-OH ([Mpa]SHDSHD-OH; SMILES O=C(O)C[C@H](NC(=O)[C@H](Cc1c[nH]cn1)NC(=O)[C@H](CO)NC(=O)[C@H](CC(=O)O)NC(=O)[C@H](Cc1c[nH]cn1)NC(=O)[C@H](CO)NC(=O)CCS)C(=O)O),–,–,extended,α-helical and α,–
3-MPA-SSSDD ([Mpa]SSSDD),38.8 °,0.441 10^15 molecule/cm^2,–,–,–
3-MPA-SSSHH ([Mpa]SSSHH),40.0 °,0.301 10^15 molecule/cm^2,–,–,–
"NCCCC[C@H](NC(=O)[C@@H](Cc1ccccc1)NC(=O)[C@H](Cc1c[nH]c2ccccc12)NC(=O)NNC(=O)[C@@H](Cc1c[nH]c2ccccc12)NC(=O)[C@@H](N)Cc1cnc[nH]1)C(N)=O [CP-2A(v), His-DTrp-AzaGly-Trp-DPhe-Lys-NH2] (H-H[dW][azaGly]W[dF]K-NH2)",–,–,–,–,EC50 (CD36 receptor): 26 nM; Kd [5]: 44 nM
"CC(C)CN(NC(=O)[C@@H](Cc1c[nH]c2ccccc12)NC(=O)[C@@H](N)Cc1c[nH]cn1)C(=O)N[C@@H](Cc1c[nH]c2ccccc12)C(=O)N[C@H](Cc1ccccc1)C(=O)N[C@@H](C)C(N)=O [CP-2B(i), His-DTrp-AzaLeu-Trp-DPhe-Ala-NH2, reference compound] (H-H[dW][azaLeu]W[dF]A-NH2)",–,–,–,–,Binding affinity to CD36 (in words) ([5]; negative control): low binding affinity
"CC(C)CN(NC(=O)[C@@H](Cc1c[nH]c2ccccc12)NC(=O)[C@@H](N)Cc1cnc[nH]1)C(=O)N[C@@H](Cc1c[nH]c2ccccc12)C(=O)N[C@H](Cc1ccccc1)C(=O)N[C@@H](C)C(N)=O [CP-2B(i), His-DTrp-AzaLeu-Trp-DPhe-Ala-NH2, reference compound] (H-H[dW][azaLeu]W[dF]A-NH2)",–,–,–,–,EC50 (CD36 receptor): > 10000 nM; Kd [5]: 1400 nM
"C[C@H](N)C(=O)N[C@H](Cc1c[nH]c2ccccc12)C(=O)N[C@@H](C)C(=O)NN(Cc1ccccc1)C(=O)N[C@H](Cc1ccccc1)C(=O)N[C@@H](CCCCN)C(N)=O [CP-3(iv), Ala-DTrp-Ala-AzaPhe-DPhe-Lys-NH2] (H-A[dW]A[azaPhe][dF]K-NH2)",–,–,–,–,EC50 (CD36 receptor): 44 nM; Kd [5]: 380 nM
"C[C@H](NC(=O)[C@@H](Cc1c[nH]c2ccccc12)NC(=O)[C@@H](N)Cc1cnc[nH]1)C(=O)NN(Cc1ccc(O)cc1)C(=O)N[C@H](Cc1ccccc1)C(=O)N[C@@H](CCCCN)C(N)=O [DBG-178(27), His-DTrp-Ala-azaTyr-DPhe-Lys-NH2] (H-H[dW]A[azaTyr][dF]K-NH2)",–,–,–,–,EC50 (CD36 receptor): 63 nM; Kd [5]: 22 nM
